T1: His6-tagged full-length Sec15 protein (yeast, UniProt P22224 1-910)
T1 sequence (looked up): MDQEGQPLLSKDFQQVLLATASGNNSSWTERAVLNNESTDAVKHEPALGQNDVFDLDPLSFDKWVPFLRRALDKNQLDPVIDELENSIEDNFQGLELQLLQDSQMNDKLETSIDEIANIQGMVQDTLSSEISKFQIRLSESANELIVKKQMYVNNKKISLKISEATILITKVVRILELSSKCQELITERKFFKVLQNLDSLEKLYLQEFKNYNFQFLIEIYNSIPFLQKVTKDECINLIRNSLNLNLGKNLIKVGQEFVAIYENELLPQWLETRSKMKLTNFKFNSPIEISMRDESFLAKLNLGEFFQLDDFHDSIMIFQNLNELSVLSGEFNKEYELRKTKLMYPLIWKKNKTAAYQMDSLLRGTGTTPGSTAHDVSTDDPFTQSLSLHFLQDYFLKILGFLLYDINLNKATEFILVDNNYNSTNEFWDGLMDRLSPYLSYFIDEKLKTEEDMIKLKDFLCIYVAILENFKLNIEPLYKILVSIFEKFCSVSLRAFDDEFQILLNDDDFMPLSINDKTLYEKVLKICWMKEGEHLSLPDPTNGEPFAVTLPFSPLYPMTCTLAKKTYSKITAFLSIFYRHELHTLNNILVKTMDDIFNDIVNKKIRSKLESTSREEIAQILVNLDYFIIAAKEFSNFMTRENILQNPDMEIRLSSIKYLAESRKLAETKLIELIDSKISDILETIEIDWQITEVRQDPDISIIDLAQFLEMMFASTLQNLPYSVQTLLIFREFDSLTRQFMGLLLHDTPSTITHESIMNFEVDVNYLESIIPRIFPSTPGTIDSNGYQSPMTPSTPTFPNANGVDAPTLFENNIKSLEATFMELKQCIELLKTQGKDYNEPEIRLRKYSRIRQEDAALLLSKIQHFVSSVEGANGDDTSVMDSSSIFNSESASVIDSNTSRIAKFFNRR

B1: Sec15p C-terminal fragment (a.a. 559–910) (domain or fragment, yeast, UniProt P22224 559-910, looked up)
chain: MTCTLAKKTYSKITAFLSIFYRHELHTLNNILVKTMDDIFNDIVNKKIRSKLESTSREEIAQILVNLDYFIIAAKEFSNFMTRENILQNPDMEIRLSSIKYLAESRKLAETKLIELIDSKISDILETIEIDWQITEVRQDPDISIIDLAQFLEMMFASTLQNLPYSVQTLLIFREFDSLTRQFMGLLLHDTPSTITHESIMNFEVDVNYLESIIPRIFPSTPGTIDSNGYQSPMTPSTPTFPNANGVDAPTLFENNIKSLEATFMELKQCIELLKTQGKDYNEPEIRLRKYSRIRQEDAALLLSKIQHFVSSVEGANGDDTSVMDSSSIFNSESASVIDSNTSRIAKFFNRR
B2: GST-Sec2p (wild type) (natural protein, yeast, UniProt P17065 1-759, looked up)
chain: MDASEEAKRVSIQVTSLSTQLIESVDKQSHLEEQLNKSLKTIASQKAAIENYNQLKEDYNTLKRELSDRDDEVKRLREDIAKENELRTKAEEEADKLNKEVEDLTASLFDEANNMVADARKEKYAIEILNKRLTEQLREKDTLLDTLTLQLKNLKKVMHSLDNESTVTNNSNRYSTILSDSATSSSTSLNKVPTSYSLASQDIYSGIVYSPSISSIRYDISLYNEFLKFVAALPRCENIKATSTESKLIRRLVNDEIQPILKIDNASGIGWLVKKTLLSLIIDGLVVVEPLSGVNATYQIGYNSSSPAKQATSNMPKMFKFPLDSPPVAVHAACSFCGESRDDIIEHARMYILKTLHKTDDGKEQVTNTYPLCHWCLLKLRQTCEIFAFLRSLKVGAWHLEKLTTQNITKEDLEKFSEVTKHTKRDGRVSSQDKKTKRLSFMAGLGINSSTKNKPKMEIFSSETNAKPGQPTTNIQRAWLQLCKLRCILHWTHIGIWAVDDSISSKIGPLVEDDSDEDQNDAISVRLQDKALWKQDAKRPFSSSSAEESQKSDAFDFESGDMENEITGESSSDESSSDGSSTDNSTADSSSEDESSLADSTTSSADSSSPESIDNGEGDDTVTKDDKSSIKSANNNEENSDCGDKKGRSIIKKKAPQRKIQKKKLLQDLDDLEEQFREESAIDQTEFENAESNVKQNISSKRASSGDENSKKDNNEKTLKTNLTIGDKTQEQIGENSPSSGLHASSSNDDNFDDAQEQQ

The test “GST-Sec2p (wild type)” concerns the target B2. As to the kind of experiment: pull-down.
Test [1] concerns the target T1, His6-tagged full-length Sec15 protein. As to the kind of experiment: pull-down.

Consider B1, for which the binding result with GST-Sec2p (wild type) is listed as “binds”.

For B2, the binding result in test [1] is on record as “binds”.

(Values after article PMC2877039 (Developmental cell, 2010).)
